Test results reported in IntAct's records for PubMed 23208550.

B1: Arrestin domain-containing protein 3 (Homo sapiens), Q96B67 (parent)
chain: MVLGKVKSLTISFDCLNDSNVPVYSSGDTVSGRVNLEVTGEIRVKSLKIHARGHAKVRWTESRNAGSNTAYTQNYTEEVEYFNHKDILIGHERDDDNSEEGFHTIHSGRHEYAFSFELPQTPLATSFEGRHGSVRYWVKAELHRPWLLPVKLKKEFTVFEHIDINTPSLLSPQAGTKEKTLCCWFCTSGPISLSAKIERKGYTPGESIQIFAEIENCSSRMVVPKAAIYQTQAFYAKGKMKEVKQLVANLRGESLSSGKTETWNGKLLKIPPVSPSILDCSIIRVEYSLMVYVDIPGAMDLFLNLPLVIGTIPLHPFGSRTSSVSSQCSMNMNWLSLSLPERPEAPPSYAEVVTEEQRRNNLAPVSACDDFERALQGPLFAYIQEFRFLPPPLYSEIDPNPDQSADDRPSCPSR

Experiments:
[1] = variants of: B1; details: with nedd4_human NEDD4, P46934
nedd4_human NEDD4, P46934, sequence (P46934 whole entry): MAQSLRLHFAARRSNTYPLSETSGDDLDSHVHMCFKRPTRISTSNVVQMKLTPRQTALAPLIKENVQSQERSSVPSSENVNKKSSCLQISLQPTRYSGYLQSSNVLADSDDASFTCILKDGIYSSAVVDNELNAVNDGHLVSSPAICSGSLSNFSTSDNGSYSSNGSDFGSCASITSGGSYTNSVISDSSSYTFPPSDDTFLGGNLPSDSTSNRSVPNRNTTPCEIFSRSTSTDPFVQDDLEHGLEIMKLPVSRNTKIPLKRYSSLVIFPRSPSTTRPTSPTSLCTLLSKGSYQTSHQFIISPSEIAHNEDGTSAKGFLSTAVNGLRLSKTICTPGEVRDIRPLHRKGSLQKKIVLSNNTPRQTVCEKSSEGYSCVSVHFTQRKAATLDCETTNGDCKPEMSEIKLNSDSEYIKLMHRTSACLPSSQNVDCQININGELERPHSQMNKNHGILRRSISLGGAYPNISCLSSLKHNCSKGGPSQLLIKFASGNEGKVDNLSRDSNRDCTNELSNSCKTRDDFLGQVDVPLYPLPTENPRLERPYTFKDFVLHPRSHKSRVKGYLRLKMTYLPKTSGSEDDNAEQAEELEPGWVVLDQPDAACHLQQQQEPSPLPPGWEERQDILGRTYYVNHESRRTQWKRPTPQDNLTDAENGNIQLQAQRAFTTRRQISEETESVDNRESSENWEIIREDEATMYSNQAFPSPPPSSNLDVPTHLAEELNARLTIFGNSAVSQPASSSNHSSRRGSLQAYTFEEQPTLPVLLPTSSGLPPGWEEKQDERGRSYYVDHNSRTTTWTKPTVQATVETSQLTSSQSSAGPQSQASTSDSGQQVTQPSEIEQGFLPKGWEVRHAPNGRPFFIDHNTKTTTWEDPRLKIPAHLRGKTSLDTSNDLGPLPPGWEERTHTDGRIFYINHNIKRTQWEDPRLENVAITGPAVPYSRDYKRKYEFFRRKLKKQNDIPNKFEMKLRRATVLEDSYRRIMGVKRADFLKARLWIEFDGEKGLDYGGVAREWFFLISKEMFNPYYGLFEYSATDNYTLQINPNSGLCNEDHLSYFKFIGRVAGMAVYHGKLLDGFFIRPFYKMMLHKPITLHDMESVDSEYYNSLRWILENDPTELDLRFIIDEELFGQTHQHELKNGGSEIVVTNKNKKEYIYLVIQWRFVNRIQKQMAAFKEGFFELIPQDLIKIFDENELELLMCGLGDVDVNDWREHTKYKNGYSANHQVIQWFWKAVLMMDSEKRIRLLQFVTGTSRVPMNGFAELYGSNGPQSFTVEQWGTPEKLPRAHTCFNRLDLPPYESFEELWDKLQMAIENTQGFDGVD

hgs_human HGS, O14964 = variants of: B1; details: with hgs_human HGS
hgs_human HGS, O14964, sequence (O14964 whole entry): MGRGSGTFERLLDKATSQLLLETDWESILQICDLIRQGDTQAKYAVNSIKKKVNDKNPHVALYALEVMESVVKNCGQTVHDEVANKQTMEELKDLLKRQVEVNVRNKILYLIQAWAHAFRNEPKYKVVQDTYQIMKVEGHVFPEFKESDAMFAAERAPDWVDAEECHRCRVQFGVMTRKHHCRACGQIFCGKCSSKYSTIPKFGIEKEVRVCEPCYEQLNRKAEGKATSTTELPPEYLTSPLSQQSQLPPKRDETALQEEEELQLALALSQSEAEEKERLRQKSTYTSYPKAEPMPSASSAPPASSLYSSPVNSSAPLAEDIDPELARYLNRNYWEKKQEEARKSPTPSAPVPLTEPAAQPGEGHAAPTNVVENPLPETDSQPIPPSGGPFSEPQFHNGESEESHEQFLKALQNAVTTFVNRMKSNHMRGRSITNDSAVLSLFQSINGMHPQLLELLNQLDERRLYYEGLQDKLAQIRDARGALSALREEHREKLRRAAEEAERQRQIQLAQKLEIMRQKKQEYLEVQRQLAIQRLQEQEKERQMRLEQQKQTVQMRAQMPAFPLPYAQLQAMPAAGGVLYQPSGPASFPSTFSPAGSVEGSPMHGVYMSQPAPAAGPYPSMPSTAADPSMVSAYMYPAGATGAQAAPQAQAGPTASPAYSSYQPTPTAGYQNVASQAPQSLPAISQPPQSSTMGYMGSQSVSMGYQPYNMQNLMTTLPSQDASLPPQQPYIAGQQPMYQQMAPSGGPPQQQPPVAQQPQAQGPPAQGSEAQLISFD

[2] = variants of: B1; details: with adrb2_human ADRB2, P07550
[3] = variants of: B1; details: with adrb2_human ADRB2, P07550; remark: listed apart in the source

effect of a mutation on the interaction [1] | effect of a mutation on the interaction (hgs_human HGS, O14964) | effect of a mutation on the interaction [2] | effect of a mutation on the interaction [3] | Variant
disrupting interaction | disrupting interaction | decreasing interaction | disrupting interaction | MVLGKVKSLTISFDCLNDSNVPVYSSGDTVSGRVNLEVTGEIRVKSLKIHARGHAKVRWTESRNAGSNTAYTQNYTEEVEYFNHKDILIGHERDDDNSEEGFHTIHSGRHEYAFSFELPQTPLATSFEGRHGSVRYWVKAELHRPWLLPVKLKKEFTVFEHIDINTPSLLSPQAGTKEKTLCCWFCTSGPISLSAKIERKGYTPGESIQIFAEIENCSSRMVVPKAAIYQTQAFYAKGKMKEVKQLVANLRGESLSSGKTETWNGKLLKIPPVSPSILDCSIIRVEYSLMVYVDIPGAMDLFLNLPLVIGTIPLHPFGSRTSSVSSQCSMNMNWLSLSLPERPEAPPSYAEVVTEEQRRNNLAPVSACDDFERALQGPLFAYIQEFRFLPAPLYSEIDPNPDQSADDRPSCPSR [P391A]
disrupting interaction | disrupting interaction | decreasing interaction | disrupting interaction | MVLGKVKSLTISFDCLNDSNVPVYSSGDTVSGRVNLEVTGEIRVKSLKIHARGHAKVRWTESRNAGSNTAYTQNYTEEVEYFNHKDILIGHERDDDNSEEGFHTIHSGRHEYAFSFELPQTPLATSFEGRHGSVRYWVKAELHRPWLLPVKLKKEFTVFEHIDINTPSLLSPQAGTKEKTLCCWFCTSGPISLSAKIERKGYTPGESIQIFAEIENCSSRMVVPKAAIYQTQAFYAKGKMKEVKQLVANLRGESLSSGKTETWNGKLLKIPPVSPSILDCSIIRVEYSLMVYVDIPGAMDLFLNLPLVIGTIPLHPFGSRTSSVSSQCSMNMNWLSLSLPERPEAPPSYAEVVTEEQRRNNLAPVSACDDFERALQGPLFAYIQEFRFLPPALYSEIDPNPDQSADDRPSCPSR [P392A]
disrupting interaction | disrupting interaction | decreasing interaction | disrupting interaction | MVLGKVKSLTISFDCLNDSNVPVYSSGDTVSGRVNLEVTGEIRVKSLKIHARGHAKVRWTESRNAGSNTAYTQNYTEEVEYFNHKDILIGHERDDDNSEEGFHTIHSGRHEYAFSFELPQTPLATSFEGRHGSVRYWVKAELHRPWLLPVKLKKEFTVFEHIDINTPSLLSPQAGTKEKTLCCWFCTSGPISLSAKIERKGYTPGESIQIFAEIENCSSRMVVPKAAIYQTQAFYAKGKMKEVKQLVANLRGESLSSGKTETWNGKLLKIPPVSPSILDCSIIRVEYSLMVYVDIPGAMDLFLNLPLVIGTIPLHPFGSRTSSVSSQCSMNMNWLSLSLPERPEAPPSYAEVVTEEQRRNNLAPVSACDDFERALQGPLFAYIQEFRFLPPPLASEIDPNPDQSADDRPSCPSR [Y394A]
disrupting interaction | disrupting interaction | decreasing interaction | disrupting interaction | MVLGKVKSLTISFDCLNDSNVPVYSSGDTVSGRVNLEVTGEIRVKSLKIHARGHAKVRWTESRNAGSNTAYTQNYTEEVEYFNHKDILIGHERDDDNSEEGFHTIHSGRHEYAFSFELPQTPLATSFEGRHGSVRYWVKAELHRPWLLPVKLKKEFTVFEHIDINTPSLLSPQAGTKEKTLCCWFCTSGPISLSAKIERKGYTPGESIQIFAEIENCSSRMVVPKAAIYQTQAFYAKGKMKEVKQLVANLRGESLSSGKTETWNGKLLKIPPVSPSILDCSIIRVEYSLMVYVDIPGAMDLFLNLPLVIGTIPLHPFGSRTSSVSSQCSMNMNWLSLSLPERPEAPPSAAEVVTEEQRRNNLAPVSACDDFERALQGPLFAYIQEFRFLPPPLYSEIDPNPDQSADDRPSCPSR [Y349A]
